# Values of other authors in PMC8969216.
# pKd: −log10 of the molar value.
# Target: SLAMF1 (Homo sapiens) (UniProt Q13291)
substance,measurement,value
SLAMF1 (from UniProt Q13291),pKd,3.70
